This note sets out measurements from patent publication US20140087995A1 (published 2014).

Numbered stars: 1 amine (or outer) side, 2 acyl side, 3 side chain; on linkers, the order of the positions; unused ones are H or OH. Bridge positions count the residues as written; N and C are the ends. * marks the point of attachment. C20 diacid = O=C(O)CCCCCCCCCCCCCCCCCCC(=O)*; γGlu = O=C(O)[C@H](CCC(=O)[*:2])N[*:1]

Experiment [1] has as its target T1, human amylin receptor (amylin 3(a) receptor: human calcitonin receptor plus RAMP-3) (human, UniProt P30988 25-474; O60896 24-148).
T1 sequence (looked up) 1: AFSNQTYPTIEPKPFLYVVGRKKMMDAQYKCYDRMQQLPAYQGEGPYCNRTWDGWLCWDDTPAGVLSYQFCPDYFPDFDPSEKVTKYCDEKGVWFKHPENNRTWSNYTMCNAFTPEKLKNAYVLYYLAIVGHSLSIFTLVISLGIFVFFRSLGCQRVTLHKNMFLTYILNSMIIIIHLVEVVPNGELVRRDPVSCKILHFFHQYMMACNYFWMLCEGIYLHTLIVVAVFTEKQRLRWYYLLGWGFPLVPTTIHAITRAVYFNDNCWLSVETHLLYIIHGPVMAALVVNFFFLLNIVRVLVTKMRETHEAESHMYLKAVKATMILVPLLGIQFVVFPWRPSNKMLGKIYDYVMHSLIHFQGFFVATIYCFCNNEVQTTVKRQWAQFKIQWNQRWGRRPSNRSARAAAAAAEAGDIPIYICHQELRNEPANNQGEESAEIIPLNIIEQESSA
T1 sequence (looked up) 2: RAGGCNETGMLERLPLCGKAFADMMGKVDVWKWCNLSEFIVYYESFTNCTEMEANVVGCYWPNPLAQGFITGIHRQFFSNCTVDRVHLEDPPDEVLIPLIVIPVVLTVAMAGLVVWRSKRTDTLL
Briefly: cell-based or functional assay.

In experiment [2] the target is T2, human calcitonin receptor (human, UniProt P30988 25-474).
T2 sequence (looked up): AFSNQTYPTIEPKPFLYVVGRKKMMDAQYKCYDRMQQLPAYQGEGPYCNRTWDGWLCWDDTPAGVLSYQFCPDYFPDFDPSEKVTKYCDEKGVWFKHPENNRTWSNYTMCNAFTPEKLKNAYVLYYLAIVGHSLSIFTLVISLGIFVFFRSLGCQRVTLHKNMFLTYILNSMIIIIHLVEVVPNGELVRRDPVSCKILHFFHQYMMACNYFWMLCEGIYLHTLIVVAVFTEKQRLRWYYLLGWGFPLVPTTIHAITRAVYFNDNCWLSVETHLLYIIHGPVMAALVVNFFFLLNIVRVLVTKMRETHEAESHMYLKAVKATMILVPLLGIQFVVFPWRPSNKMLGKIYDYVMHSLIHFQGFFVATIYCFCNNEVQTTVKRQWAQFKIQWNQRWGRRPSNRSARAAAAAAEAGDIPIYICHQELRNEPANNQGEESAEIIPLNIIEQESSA
Briefly: cell-based or functional assay.

For experiment [3], the target named is T1, human amylin receptor (amylin 3(a) …). Briefly: SPA competition binding, displacement of 125I-rat amylin, membranes of BHK amylin 3(a)/CRE-luc cells. On the procedure:
The binding assay was performed using scintillation proximity assay (SPA) beads (RPNQ0001) from PerkinElmer and cell membranes from the Amylin 3(a)/CRE-luc cells (as described in Assay (II)) were used. Membranes were prepared in the following way; the cells were rinsed with PBS and incubated with Versene for approximately 5 min before harvesting. The cells were flushed with PBS and the cell-suspension was centrifuged for 5 min at 1000 rpm. Cells were homogenized (ultrathurrax) in a buffer containing 20 mM Na-HEPES and 10 mM EDTA (pH 7.4) and centrifuged at 20.000 rpm for 15 min. The resulting pellet was resuspended, homogenized and centrifuged (20.000 rpm, 15 min) in a buffer containing 20 mM Na-HEPES and 0.1 mM EDTA (pH 7.4, buffer 2). The resulting pellet was resuspended in buffer 2 and protein concentration was measured (BCA protein Assay, Pierce). The homogenate was kept cold during the whole procedure. The membranes were kept at −80° C. until use. The assay was performed in a 384 well Optiplate (PerkinElmer) in a total volume of 40 ul. Membranes were mixed with SPA beads. Final concentration of membranes 35 ng/μL final and SPA beads was 0.05 mg/well. Test-compounds were dissolved in DMSO and further diluted in assay buffer (50 mM Hepes, pH 7.4, 1 mM CaCl2, 5 mM MgCl₂, 0.1% OA and 0.02% Tween20). […] The final mixture was incubated with shaking at 400 rpm for 120 min at 25° C. prior to centrifugation (1500 rpm, 10 min). Samples were analyzed on TopCounter™ (Packard). The IC₅₀ was calculated using (one site binding competition analysis) GraphPad Prism5 as a measure of receptor affinity.
Background: Displacement assays read how much labelled ligand stays bound in the presence of the test substance.

B1: N^α1N^α1-[(4S)-4-carboxy-4-(19-carboxynonadecanoylamino)butanoyl]-[Glu14,Arg17,Pro21,Pro27,Glu35]-h-amylin (peptide)
peptide: {C20 diacid-γGlu}-KCNTATCATQRLAEFLRHSSPNFGAIPSSTNVGSETY-NH2
modifications: disulfide 2-7
SMILES: CC[C@H](C)[C@H](NC(=O)[C@H](C)NC(=O)CNC(=O)[C@H](Cc1ccccc1)NC(=O)[C@H](CC(N)=O)NC(=O)[C@@H]1CCCN1C(=O)[C@H](CO)NC(=O)[C@H](CO)NC(=O)[C@H](Cc1c[nH]cn1)NC(=O)[C@H](CCCNC(=N)N)NC(=O)[C@H](CC(C)C)NC(=O)[C@H](Cc1ccccc1)NC(=O)[C@H](CCC(=O)O)NC(=O)[C@H](C)NC(=O)[C@H](CC(C)C)NC(=O)[C@H](CCCNC(=N)N)NC(=O)[C@H](CCC(N)=O)NC(=O)[C@@H](NC(=O)[C@H](C)NC(=O)[C@@H]1CSSC[C@H](NC(=O)[C@H](CCCCN)NC(=O)CC[C@H](NC(=O)CCCCCCCCCCCCCCCCCCC(=O)O)C(=O)O)C(=O)N[C@@H](CC(N)=O)C(=O)N[C@@H]([C@@H](C)O)C(=O)N[C@@H](C)C(=O)N[C@@H]([C@@H](C)O)C(=O)N1)[C@@H](C)O)C(=O)N1CCC[C@H]1C(=O)N[C@@H](CO)C(=O)N[C@@H](CO)C(=O)N[C@H](C(=O)N[C@@H](CC(N)=O)C(=O)N[C@H](C(=O)NCC(=O)N[C@@H](CO)C(=O)N[C@@H](CCC(=O)O)C(=O)N[C@H](C(=O)N[C@@H](Cc1ccc(O)cc1)C(N)=O)[C@@H](C)O)C(C)C)[C@@H](C)O
notes: also called compound 22
As for B1, in experiment [1], the “Ratio hCT/hAmylin funct.” value turned out to be 3.8 and the “hAmylin-R funct. EC50 (pM)” value was 270 pM. The “hCTR funct. EC50 (pM)” value in experiment [2] worked out at 1030 pM. Further, the IC50 (commonly the point on the concentration scale where inhibition reaches its midpoint) in experiment [3] was determined as 0.794 nM.

B2: N^α1-[(4S)-4-carboxy-4-(19-carboxynonadecanoylamino)butanoyl]-[Arg17,Pro21,Pro27,Glu35]-h-amylin (peptide)
peptide: KCNTATCATQRLANFLRHSSPNFGAIPSSTNVGSETY
modifications: C20 diacid-gGlu on the alpha amino group of the N-terminal residue (Lys1); disulfide Cys2-Cys7 and C-terminal amide as in human amylin
notes: also called compound 23
B2: in experiment [1], the “Ratio hCT/hAmylin funct.” value was 8.9 and the “hAmylin-R funct. EC50 (pM)” value stood at 340 pM. Further, the “hCTR funct. EC50 (pM)” value in experiment [2] is 3020 pM. For the same molecule, the IC50 in experiment [3] was 0.871 nM.
